Assay results as given in EP2272524A2.

What was measured:
[1] = target: human Y2 receptor (human) (UniProt P49146); test: competition binding, displacement of 125I-PYY, COS-7 cells with human Y2
[2] = target: human Y2 receptor (human) (UniProt P49146); test: cell-based or functional assay
[3] = target: human Y1 receptor (human) (UniProt P25929); test: cell-based or functional assay
[4] = target: human Y4 receptor (human) (UniProt P50391); test: cell-based or functional assay
[5] = target: human Y4 receptor (human) (UniProt P50391); test: competition binding, displacement of 125I-PP, COS-7 cells with human Y4
[6] = target: human Y5 receptor (human) (UniProt Q15761); test: competition binding, displacement of 125I-NPY, COS-7 cells with human Y5
UniProt Q15761, sequence (Q15761 whole entry): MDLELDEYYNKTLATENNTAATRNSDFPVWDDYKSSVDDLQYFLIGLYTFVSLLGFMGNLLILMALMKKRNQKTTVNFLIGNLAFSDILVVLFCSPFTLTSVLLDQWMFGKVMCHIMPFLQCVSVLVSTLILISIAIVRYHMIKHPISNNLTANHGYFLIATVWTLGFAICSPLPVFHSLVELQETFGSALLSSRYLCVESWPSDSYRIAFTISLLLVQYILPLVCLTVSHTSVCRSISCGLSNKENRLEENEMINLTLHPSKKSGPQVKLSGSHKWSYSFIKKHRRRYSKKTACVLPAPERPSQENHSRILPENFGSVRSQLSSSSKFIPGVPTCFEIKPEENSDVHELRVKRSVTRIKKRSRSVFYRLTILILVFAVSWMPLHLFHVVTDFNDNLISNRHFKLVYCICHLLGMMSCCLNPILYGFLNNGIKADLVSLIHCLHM

[7] = target: human Y5 receptor (human) (UniProt Q15761); test: cell-based or functional assay

UniProt P49146, sequence (P49146 whole entry): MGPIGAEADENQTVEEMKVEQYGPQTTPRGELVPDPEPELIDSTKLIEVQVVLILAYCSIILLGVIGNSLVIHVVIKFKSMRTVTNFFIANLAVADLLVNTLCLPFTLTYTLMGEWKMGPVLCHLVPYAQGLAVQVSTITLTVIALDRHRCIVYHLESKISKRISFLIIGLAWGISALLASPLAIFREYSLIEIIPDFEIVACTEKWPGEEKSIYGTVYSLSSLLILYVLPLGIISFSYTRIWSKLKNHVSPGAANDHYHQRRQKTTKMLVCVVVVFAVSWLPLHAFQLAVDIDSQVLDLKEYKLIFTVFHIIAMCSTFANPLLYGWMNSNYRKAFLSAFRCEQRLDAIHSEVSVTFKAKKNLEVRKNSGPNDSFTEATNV
UniProt P50391, sequence (P50391 whole entry): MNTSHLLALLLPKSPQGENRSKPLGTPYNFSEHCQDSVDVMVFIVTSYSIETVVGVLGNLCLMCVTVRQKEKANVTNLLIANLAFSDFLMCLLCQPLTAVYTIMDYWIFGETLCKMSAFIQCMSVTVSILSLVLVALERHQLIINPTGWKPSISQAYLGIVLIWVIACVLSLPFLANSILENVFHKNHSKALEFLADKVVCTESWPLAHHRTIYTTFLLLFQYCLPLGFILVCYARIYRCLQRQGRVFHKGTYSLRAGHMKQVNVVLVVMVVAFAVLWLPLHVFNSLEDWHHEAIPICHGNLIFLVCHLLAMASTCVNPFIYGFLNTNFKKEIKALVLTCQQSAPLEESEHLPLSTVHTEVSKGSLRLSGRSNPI
UniProt P25929, sequence (P25929 whole entry): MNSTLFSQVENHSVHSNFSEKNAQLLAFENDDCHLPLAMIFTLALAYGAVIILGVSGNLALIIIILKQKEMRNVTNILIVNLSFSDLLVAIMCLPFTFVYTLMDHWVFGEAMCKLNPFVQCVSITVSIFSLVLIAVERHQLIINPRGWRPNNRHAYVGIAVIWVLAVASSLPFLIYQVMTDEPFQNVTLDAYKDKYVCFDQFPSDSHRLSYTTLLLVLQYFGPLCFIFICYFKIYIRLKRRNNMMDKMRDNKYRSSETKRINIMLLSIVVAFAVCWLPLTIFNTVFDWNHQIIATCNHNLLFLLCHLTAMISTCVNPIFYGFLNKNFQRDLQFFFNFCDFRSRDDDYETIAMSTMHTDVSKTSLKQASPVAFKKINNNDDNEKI

Row | Substance | IC50 [1] [nM] | EC50, inositol phosphate turnover (potency assay) [2] [nM] | EC50, inositol phosphate turnover (potency assay) [3] [nM] | EC50, inositol phosphate turnover (potency assay) [4] [nM] | IC50 [5] [nM] | IC50 [6] [nM] | EC50, inositol phosphate turnover (potency assay) [7] [nM]
1 | [Cys2,D-Cys27]PYY2-36 (peptide) | 0.6 | 1.9 | > 1000 | > 1000 | 300 | 36 | –
2 | [Cys2,D-Cys27]PYY (peptide) | – | – | > 1000 | > 1000 | – | – | –
3 | [Lys4,Gln34]PP (peptide) | 0.21 | 0.17 | 38 | 64 | 6 | 0.87 | 3.8
